# System: Escherichia coli TOP10
# Assay: shrunken log2 fold change of peptide-encoding DNA abundance (4.5 h post-induction vs induction); higher = less antimicrobial activity (less host growth inhibition)
# Details: time post-induction: 4.5 h; library: site-saturation at positions 5, 18, 19, 20
# 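Further: peptides expressed intracellularly from a pBAD plasmid library in pooled LB shake-flask culture, induced with 0.3% L-arabinose, DNA abundance read by NGS, three biological replicates, DESeq2 with apeglm shrinkage.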
row,Sequence,shrunken log2 fold change
1,RRIRERPPRLPRPRPRPRDHPRP,0.162
2,RRIRERPPRLPRPRPRPRDWPRP,0.311
3,RRIRERPPRLPRPRPRPREMPRP,0.203
4,RRIRERPPRLPRPRPRPRGHPRP,0.0666
5,RRIRERPPRLPRPRPRPRGKPRP,0.0142
6,RRIRERPPRLPRPRPRPRGQPRP,0.837
7,RRIRERPPRLPRPRPRPRHCPRP,-0.133
8,RRIRERPPRLPRPRPRPRHWPRP,0.0819
9,RRIRERPPRLPRPRPRPRITPRP,-0.578
10,RRIRERPPRLPRPRPRPRKFPRP,0.173
11,RRIRERPPRLPRPRPRPRKMPRP,-0.0569
12,RRIRERPPRLPRPRPRPRKNPRP,-0.0182
13,RRIRERPPRLPRPRPRPRKPPRP,-0.13
14,RRIRERPPRLPRPRPRPRLDPRP,0.0479
15,RRIRERPPRLPRPRPRPRLGPRP,0.157
16,RRIRERPPRLPRPRPRPRLKPRP,-0.0205
17,RRIRERPPRLPRPRPRPRLLPRP,-0.335
18,RRIRERPPRLPRPRPRPRNCPRP,-0.102
19,RRIRERPPRLPRPRPRPRPLPRP,0.176
20,RRIRERPPRLPRPRPRPRQDPRP,-0.0529
21,RRIRERPPRLPRPRPRPRRDPRP,0.0233
22,RRIRERPPRLPRPRPRPRRIPRP,-0.00822

row,Sequence,shrunken log2 fold change
1,RRIRERPPRLPRPRPRPRTEPRP,-0.0166
2,RRIRERPPRLPRPRPRPSCSPRP,-0.412
3,RRIRERPPRLPRPRPRPSCWPRP,0.101
4,RRIRERPPRLPRPRPRPSDFPRP,-0.149
5,RRIRERPPRLPRPRPRPSEYPRP,-0.27
6,RRIRERPPRLPRPRPRPSFKPRP,-0.401
7,RRIRERPPRLPRPRPRPSGMPRP,-0.46
8,RRIRERPPRLPRPRPRPSGTPRP,-0.117
9,RRIRERPPRLPRPRPRPSGYPRP,-0.0887
10,RRIRERPPRLPRPRPRPSICPRP,-0.151
11,RRIRERPPRLPRPRPRPSINPRP,-0.798
12,RRIRERPPRLPRPRPRPSLCPRP,-0.0545
13,RRIRERPPRLPRPRPRPSLGPRP,-0.143
14,RRIRERPPRLPRPRPRPSLSPRP,-0.573
15,RRIRERPPRLPRPRPRPSNEPRP,-0.17
16,RRIRERPPRLPRPRPRPSNHPRP,-0.91
17,RRIRERPPRLPRPRPRPSPIPRP,-0.122
18,RRIRERPPRLPRPRPRPSQRPRP,-0.0321
19,RRIRERPPRLPRPRPRPSRAPRP,0.12
20,RRIRERPPRLPRPRPRPSRQPRP,-0.214
21,RRIRERPPRLPRPRPRPSTFPRP,2.07
22,RRIRERPPRLPRPRPRPSTHPRP,-0.663

row,Sequence,shrunken log2 fold change
1,RRIRERPPRLPRPRPRPSTKPRP,-0.232
2,RRIRERPPRLPRPRPRPSVAPRP,0.132
3,RRIRERPPRLPRPRPRPSVDPRP,-0.318
4,RRIRERPPRLPRPRPRPSVFPRP,-0.0831
5,RRIRERPPRLPRPRPRPSWTPRP,-0.833
6,RRIRERPPRLPRPRPRPSYDPRP,-0.301
7,RRIRERPPRLPRPRPRPSYEPRP,-0.499
8,RRIRERPPRLPRPRPRPTCDPRP,0.158
9,RRIRERPPRLPRPRPRPTDFPRP,-0.13
10,RRIRERPPRLPRPRPRPTDLPRP,0.15
11,RRIRERPPRLPRPRPRPTEDPRP,-0.317
12,RRIRERPPRLPRPRPRPTGAPRP,0.316
13,RRIRERPPRLPRPRPRPTGTPRP,-0.0482
14,RRIRERPPRLPRPRPRPTIIPRP,-0.664
15,RRIRERPPRLPRPRPRPTIWPRP,-0.222
16,RRIRERPPRLPRPRPRPTLDPRP,0.149
17,RRIRERPPRLPRPRPRPTLFPRP,0.0897
18,RRIRERPPRLPRPRPRPTLHPRP,-0.0201
19,RRIRERPPRLPRPRPRPTLSPRP,0.0115
20,RRIRERPPRLPRPRPRPTLTPRP,-0.0194
21,RRIRERPPRLPRPRPRPTMRPRP,0.732
22,RRIRERPPRLPRPRPRPTMWPRP,-0.421

row,Sequence,shrunken log2 fold change
1,RRIRERPPRLPRPRPRPTNAPRP,-0.0659
2,RRIRERPPRLPRPRPRPTPEPRP,0.122
3,RRIRERPPRLPRPRPRPTPNPRP,0.0742
4,RRIRERPPRLPRPRPRPTPWPRP,0.108
5,RRIRERPPRLPRPRPRPTQKPRP,0.337
6,RRIRERPPRLPRPRPRPTQRPRP,0.0475
7,RRIRERPPRLPRPRPRPTSHPRP,-0.239
8,RRIRERPPRLPRPRPRPTSTPRP,-0.319
9,RRIRERPPRLPRPRPRPTTRPRP,0.0679
10,RRIRERPPRLPRPRPRPTTWPRP,0.0447
11,RRIRERPPRLPRPRPRPTTYPRP,-0.8
12,RRIRERPPRLPRPRPRPTVGPRP,-0.116
13,RRIRERPPRLPRPRPRPTVLPRP,-0.0263
14,RRIRERPPRLPRPRPRPTVSPRP,-0.137
15,RRIRERPPRLPRPRPRPTWKPRP,-0.012
16,RRIRERPPRLPRPRPRPTWNPRP,-0.167
17,RRIRERPPRLPRPRPRPTYCPRP,0.0353
18,RRIRERPPRLPRPRPRPVAAPRP,0.247
19,RRIRERPPRLPRPRPRPVACPRP,-0.0696
20,RRIRERPPRLPRPRPRPVADPRP,-0.0439
21,RRIRERPPRLPRPRPRPVCIPRP,-0.541
22,RRIRERPPRLPRPRPRPVDDPRP,0.133

row,Sequence,shrunken log2 fold change
1,RRIRERPPRLPRPRPRPVEAPRP,0.21
2,RRIRERPPRLPRPRPRPVFKPRP,-0.228
3,RRIRERPPRLPRPRPRPVFSPRP,-0.191
4,RRIRERPPRLPRPRPRPVFTPRP,-0.541
5,RRIRERPPRLPRPRPRPVHEPRP,-0.00127
6,RRIRERPPRLPRPRPRPVHPPRP,-0.00739
7,RRIRERPPRLPRPRPRPVMFPRP,0.934
8,RRIRERPPRLPRPRPRPVNCPRP,-0.315
9,RRIRERPPRLPRPRPRPVNEPRP,-0.224
10,RRIRERPPRLPRPRPRPVNKPRP,-0.31
11,RRIRERPPRLPRPRPRPVNQPRP,-0.123
12,RRIRERPPRLPRPRPRPVPTPRP,0.116
13,RRIRERPPRLPRPRPRPVQCPRP,0.00166
14,RRIRERPPRLPRPRPRPVQNPRP,-0.0413
15,RRIRERPPRLPRPRPRPVTRPRP,-0.0559
16,RRIRERPPRLPRPRPRPVTWPRP,-0.165
17,RRIRERPPRLPRPRPRPVVQPRP,-0.104
18,RRIRERPPRLPRPRPRPVYMPRP,-0.481
19,RRIRERPPRLPRPRPRPWAMPRP,-0.129
20,RRIRERPPRLPRPRPRPWASPRP,-0.00133
21,RRIRERPPRLPRPRPRPWDDPRP,-0.0464

# Reference: the supplement of paper PMC9112550, “Optimization of the antimicrobial peptide Bac7 by deep mutational scanning” (BMC Biology, 2022)
